Laboratory results from patent publication US20250122303A1, “TREATMENT AND PREVENTION OF CANCER USING HER3 ANTIGEN-BINDING MOLECULES” (Hummingbird Bioscience Pte. Ltd., priority 2021, published 2025).

Tests used:
[1] = tested on: HEK293 HER3, HCC95, N87 and OVCAR8 cells; experiment: Antibody internalisation, pHrodo imaging; type: cell-based, human; conditions: 24 hours
Method: Briefly, 100,000 HEK293 cells engineered to express HER3, HCC95, N87 or OVCAR8 cells were seeded in wells of 96-well tissue culture plates and cultured overnight at 37° C. in 5% CO2. […] The cells in culture were imaged every 30 min for 24 hours, in 4 different fields of each well. The maximum signal intensity in the FITC channel of each field was quantified at 24 hours.

hHER3 = hHER3 (Homo sapiens, UniProt P21860); experiment: BLI binding to HER3 in absence of NRG1 ('closed' conformation)
Method: (§1) In further experiments, anti-HER3 antibodies were analysed in order to determine the affinity of binding to human HER3 in the context of a human HER3:human NRG1 complex (that is, HER3 provided in the ligand-bound, ‘open’ conformation), as compared to the affinity of binding to human HER3 in the absence of NRG1 complex (that is, HER3 provided in the unbound, ‘closed’ conformation).
(§2) Binding of anti-HER3 antibodies to human HER3 was evaluated by BLI. Briefly, anti-Human IgG Capture (AHC) sensors (ForteBio) were loaded with anti-HER3 IgG antibodies (25 nM). Kinetic measurements were performed in absence or presence of NRG1. NRG1 was used at 1:1 molar ratio with HER3 wherein the complex was allowed to form at RT for 2 h. His-tagged human HER3 or HER3-NRG1 complexes were loaded to antibody coated AHC sensors at different concentrations for 120 s, followed by a 120 s dissociation time. All measurements were performed at 25° C. with agitation at 1000 rpm. Sensorgrams were referenced for buffer effects and then analyzed using the Octet QK384-software (ForteBio). Kinetic responses were globally fitted using a one-site binding model to obtain values for association (Kon), dissociation (Koff) rate constants and the equilibrium dissociation constant (KD).

[2] = cited from earlier work
[3] = target: human HER3:human NRG1 complex (Homo sapiens, UniProt P21860); experiment: BLI binding to HER3-NRG1 complex ('open' conformation); conditions: presence of NRG1 (1:1 molar ratio)
Method: as §1, §2

[4] = clinical, literature, cited from earlier work
[5] = target: T1, human HER3 (HEK293 HER3 O/E cells) (Homo sapiens, UniProt P21860); experiment: Cell surface antigen-binding by flow cytometry
T1 construct: expressed in transfected cells; host or cells: HEK293
Method: The cells were washed thrice with FACS buffer (PBS with 5 mM EDTA and 0.5% BSA) and resuspended in FITC-conjugated anti-FC antibody (Invitrogen, USA) for 40 min at 2-8° C. Cells were washed again and resuspended in 200 μL of FACS flow buffer (PBS with 5 mM EDTA) for flow cytometric analysis using MACSQuant 10 (Miltenyi Biotec, Germany). After acquisition, all raw data were analyzed using Flowlogic software. Cells were gated using forward and side scatter profile percentage of positive cells was determined for native and overexpressing cell populations.
The cells were washed with buffer (PBS with 2 mM EDTA and 0.5% BSA) and resuspended in FITC-conjugated anti-FC antibody (Invitrogen, USA) at 10 μg/ml for 20 min at 4° C. Cells were washed again and resuspended in 200 μL of FACS flow buffer (PBS with 5 mM EDTA) for flow cytometric analysis using MACSQuant 10 (Miltenyi Biotec, Germany). Unstained WT and transfected HEK293 cells were included in the analysis as negative controls. After acquisition, all raw data were analyzed using Flowlogic software. Cells were gated using forward and side scatter profile percentage of positive cells was determined for native and overexpressing cell populations.

Substance	internalization ([1]; HEK293 cells overexpressing HER3, 120 nM)	internalization ([1]; OvCar8 cells, 120 nM)	affinity of binding to human HER3 (hHER3)	gastrointestinal toxicity DLTs ([2]; human, in vivo)	hypokalaemia and hypomagnesemia DLTs ([2]; in the presence of diarrhoea)	affinity of binding to human HER3 [3]	Dose where Saturating PK was observed [4]	T½ (terminal half life) [4] [h]	Cmax (μg/ml) normalised to per mg/kg dosed [4] [µg/mL]	extent of binding to human HER3-expressing cells ([5]; 10 μg/ml antibody)	extent of binding to human HER3-expressing cells ([5]; 20 μg/ml antibody)
LJM716: anti-HER3 antibody binding domains II and IV, locks HER3 in inactive conformation (Garner et al.) [reference compound]	significant internalization	Modest to moderate internalization	subpicomolar affinity	DLTs were reported	DLTs were reported	dramatically reduced	10 to 40 mg/kg	220 to 336	19 to 22	bind to human HER3-expressing cells to a similar extent	bind to human HER3-expressing cells to a similar extent
RG7116	–	–	–	–	–	–	400 to 2000 mg	220 to 288	24 to 41	–	–
